Data from patent publication US6531312.

T1: GST-Cdc25C, P30307
T1 chain: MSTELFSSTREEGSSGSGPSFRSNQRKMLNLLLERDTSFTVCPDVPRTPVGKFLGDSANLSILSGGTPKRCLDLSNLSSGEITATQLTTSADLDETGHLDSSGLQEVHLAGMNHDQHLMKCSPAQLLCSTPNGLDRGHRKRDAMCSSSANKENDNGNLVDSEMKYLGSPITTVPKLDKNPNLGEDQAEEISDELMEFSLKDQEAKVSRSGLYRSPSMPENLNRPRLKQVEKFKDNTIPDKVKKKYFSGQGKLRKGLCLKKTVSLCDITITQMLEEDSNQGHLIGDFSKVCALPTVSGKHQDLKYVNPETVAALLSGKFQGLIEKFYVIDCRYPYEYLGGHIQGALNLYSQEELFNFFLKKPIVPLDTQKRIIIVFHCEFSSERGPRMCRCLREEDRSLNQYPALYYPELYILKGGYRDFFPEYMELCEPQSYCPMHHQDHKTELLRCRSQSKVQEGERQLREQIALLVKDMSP

B1: GST-Cdc25C (protein)
chain: T1 chain
B2: 6his-Chk1 (protein)
chain: MAVPFVEDWDLVQTLGEGAYGEVQLAVNRVTEEAVAVKIVDMKRAVDCPENIKKEICINKMLNHENVVKFYGHRREGNIQYLFLEYCSGGELFDRIEPDIGMPEPDAQRFFHQLMAGVVYLHGIGITHRDIKPENLLLDERDNLKISDFGLATVFRYNNRERLLNKMCGTLPYVAPELLKRREFHAEPVDVWSCGIVLTAMLAGELPWDQPSDSCQEYSDWKEKKTYLNPWKKIDSAPLALLHKILVENPSARITIPDIKKDRWYNKPLKKGAKRPRVTSGGVSESPSGFSKHIQSNLDFSPVNSASSEENVKYSSSQPEPRTGLSLWDTSPSYIDKLVQGISFSQPTCPDHMLLNSQLLGTPGSSQNPWQRLVKRMTRFFTKLDADKSYQCLKETCEKLGYQWKKSCMNQVTISTTDRRNNKLIFKVNLLEMDDKILVDFRLSKGDGLEFKRHFLKIKGKLIDIVSSQKIWLPAT

Tests used:
GST-Cdc25C, P30307 = target: T1, GST-Cdc25C, P30307

Sequence of 6his-Cdc2, P06493 (P06493 whole entry, looked up): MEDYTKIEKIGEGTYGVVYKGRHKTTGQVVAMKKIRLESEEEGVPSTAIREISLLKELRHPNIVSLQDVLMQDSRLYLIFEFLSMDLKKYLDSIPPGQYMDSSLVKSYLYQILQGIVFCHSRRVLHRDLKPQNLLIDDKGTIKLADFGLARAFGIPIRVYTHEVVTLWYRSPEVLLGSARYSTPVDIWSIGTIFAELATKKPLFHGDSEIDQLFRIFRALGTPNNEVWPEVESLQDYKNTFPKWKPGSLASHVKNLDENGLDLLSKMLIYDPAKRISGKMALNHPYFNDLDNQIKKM

Protein | dephosphorylation of Cdc2 (gel-mobility analysis) (6his-Cdc2, P06493) | GST-Cdc25 phosphatase activity (loss of slower migrating phosphorylated forms of Cdc2 on gel) (GST-Cdc25C, P30307) | phosphorylation of GST-Cdc25 (32P ATP, SDS-PAGE, autoradiography) (GST-Cdc25C, P30307)
B1 | GST-Cdc25 catalyses a reduction in the slower migrating phosphorylated forms of Cdc2 | – | –
B2 | – | Prior phosphorylation of GST-Cdc25 by 6his-Chk1 leads to a dosedependent reduction in GST-Cdc25 activity | GST-Cdc25 was phosphorylated by 6his-Chk1 and by 6his-hCDS1
